For assay [1], the target named is menin-MLL1_(MBM-LBM) complex (human) (UniProt O00255). Briefly: ITC.
In assay [2] the target is T1, full-length menin (human, UniProt O00255-2 1-610).
T1 sequence (looked up): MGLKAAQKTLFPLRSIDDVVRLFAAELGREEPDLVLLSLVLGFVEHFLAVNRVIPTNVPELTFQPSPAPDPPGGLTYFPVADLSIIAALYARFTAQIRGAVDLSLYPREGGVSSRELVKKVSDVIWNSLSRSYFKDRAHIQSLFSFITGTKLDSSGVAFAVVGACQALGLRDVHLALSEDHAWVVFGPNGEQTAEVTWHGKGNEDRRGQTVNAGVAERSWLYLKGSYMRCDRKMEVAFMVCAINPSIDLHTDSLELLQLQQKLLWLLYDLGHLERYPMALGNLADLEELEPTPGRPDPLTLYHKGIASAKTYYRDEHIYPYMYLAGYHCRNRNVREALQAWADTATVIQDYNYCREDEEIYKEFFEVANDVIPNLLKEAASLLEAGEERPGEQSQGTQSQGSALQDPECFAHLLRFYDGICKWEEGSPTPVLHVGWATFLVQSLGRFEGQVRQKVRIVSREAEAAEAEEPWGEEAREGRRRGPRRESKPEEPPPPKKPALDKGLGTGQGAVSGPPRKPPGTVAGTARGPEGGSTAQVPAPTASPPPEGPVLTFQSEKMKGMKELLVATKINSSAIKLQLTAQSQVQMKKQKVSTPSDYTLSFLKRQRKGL
Briefly: pull-down.

The target of assay [3] is T2, meninΔ (human menin with the unstructured loop, residues 460–519, deleted) (human, UniProt O00255-2 1-610, residues 460–519 deleted).
T2 sequence (looked up): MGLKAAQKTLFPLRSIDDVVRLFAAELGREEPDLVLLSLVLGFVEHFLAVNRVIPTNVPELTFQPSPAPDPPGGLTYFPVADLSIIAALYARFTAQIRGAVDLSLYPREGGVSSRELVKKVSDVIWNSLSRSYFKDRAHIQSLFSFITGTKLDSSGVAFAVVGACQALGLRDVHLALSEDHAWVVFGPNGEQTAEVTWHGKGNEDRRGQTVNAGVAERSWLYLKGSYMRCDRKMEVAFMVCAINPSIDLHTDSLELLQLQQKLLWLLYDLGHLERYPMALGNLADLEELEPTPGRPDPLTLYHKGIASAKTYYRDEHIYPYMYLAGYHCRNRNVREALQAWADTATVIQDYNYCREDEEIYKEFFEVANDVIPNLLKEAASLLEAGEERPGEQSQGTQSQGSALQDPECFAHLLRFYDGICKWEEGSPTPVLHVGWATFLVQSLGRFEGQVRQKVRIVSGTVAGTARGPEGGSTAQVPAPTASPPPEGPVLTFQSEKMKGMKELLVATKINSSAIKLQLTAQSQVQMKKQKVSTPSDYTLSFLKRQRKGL
Briefly: crystal structure.

Assay [4] concerns the target T2, meninΔ (human menin with the …). Briefly: ITC.
The target in assay [5] is T1, full-length menin. The assay can be described thus: ITC.

With “LEDGFIBD (IBD domain of LEDGF) (domain or fragment)”, the dissociation constant Kd in assay [1] was 470 nM.

B1: GST-fused JunD (residues 1–150) (domain or fragment, human, UniProt P17535 1-150, looked up)
chain: METPFYGDEALSGLGGGASGSGGSFASPGRLFPGAPPTAAAGSMMKKDALTLSLSEQVAAALKPAAAPPPTPLRADGAPSAAPPDGLLASPDLGLLKLASPELERLIIQSNGLVTTTPTSSQFLYPKVAASEEQEFAEGFVKALEDLHKQ
For B1, in the assay with full-length menin [2], the binding result is given as “binds”.

B2: MLL1_(MBM-LBM)Δ (MLL1 residues 6–153 with loops 16–22 and 36–102 deleted) (domain or fragment, human, UniProt Q03164 6-153, looked up)
chain: RWRFPARPGTGRRGLGGAPRQRVPALLRVGPGFDAALQVSAAIGTNLRRFRAVFGESGGGGGSGEDEQFLGFGS
Consider B2, for which, in assay [3], the binding result is listed as “binds”.
SPGRLFPGAPPTAKK (peptide, UniProt P17535 27-47, looked up) [JunDMBMΔ (JunD residues 27–47 with residues 40–45 deleted)]: the binding result in assay [3] is “binds”.
In assay [4], ARGRFPGRPRGAGGGGGRGG (peptide, UniProt Q9UMN6 16-35, looked up) [MLL2MBM (MLL2 residues 16–35)] registered a Kd of 120 nM.
Turning to SPGRLFPGAPPTAAAGSMMKK (peptide, UniProt P17535 27-47, looked up) [JunDMBM (JunD residues 27–47, menin-binding motif)], in assay [4], the binding result was “binds”.
RWRFPARPGTTGGGGGGGRR (peptide, UniProt Q03164 6-25, looked up) [MLL1MBM (menin-binding motif, residues 6–25 of MLL1)] registered a Kd in assay [4] of 82 nM. Further, the binding result in the assay with full-length menin [5] is “binds”.
For the molecule RWRFPARPGTTGGGGGGGEE (peptide, UniProt Q03164 6-25, looked up) [MLL1MBM with 24RR25 substituted with two glutamates], the “fold decrease in binding affinity against wild-type MLL1MBM” value in assay [4] stood at 21 fold.

The values are drawn from article PMC3983792 (Nature, 2012).
